Biological target: CENP-A nucleosomes reconstituted on an 18 x 601 DNA array (xlCENP-A-myc/H4 tetramer with H2A/H2B dimers) (X. laevis | not stated) (UniProt Q569M3)

Xenopus laevis M18BP1-L S760D (xlM18BP1-L^S760D-3xFLAG) (natural protein)
centromere localisation (immunofluorescence, FLAG) on sperm nuclei in interphase egg extract immunodepleted of endogenous CENP-C and M18BP1, relative to WT FLAG-M18BP1-L (% of WT levels): 30

From article PMC13021935
